Data from patent US20240124865.

T1: FRETS-VWF73 substrate (VWF fragment comprising VWFA2 domain residues 1596 to 1668)
T1 chain: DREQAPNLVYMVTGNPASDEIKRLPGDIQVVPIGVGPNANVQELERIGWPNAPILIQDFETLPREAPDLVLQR

B1: ADAMTS13 A1144I variant (Exemplified A1144I variant) (protein)
chain: AAGGILHLELLVAVGPDVFQAHQEDTERYVLTNLNIGAELLRDPSLGAQFRVHLVKMVILTEPEGAPNITANLTSSLLSVCGWSQTINPEDDTDPGHADLVLYITRFDLELPDGNRQVRGVTQLGGACSPTWSCLITEDTGFDLGVTIAHEIGHSFGLEHDGAPGSGCGPSGHVMASDGAAPRAGLAWSPCSRRQLLSLLSAGRARCVWDPPRPQPGSAGHPPDAQPGLYYSANEQCRVAFGPKAVACTFAREHLDMCQALSCHTDPLDQSSCSRLLVPLLDGTECGVEKWCSKGRCRSLVELTPIAAVHGRWSSWGPRSPCSRSCGGGVVTRRRQCNNPRPAFGGRACVGADLQAEMCNTQACEKTQLEFMSQQCARTDGQPLRSSPGGASFYHWGAAVPHSQGDALCRHMCRAIGESFIMKRGDSFLDGTRCMPSGPREDGTLSLCVSGSCRTFGCDGRMDSQQVWDRCQVCGGDNSTCSPRKGSFTAGRAREYVTFLTVTPNLTSVYIANHRPLFTHLAVRIGGRYVVAGKMSISPNTTYPSLLEDGRVEYRVALTEDRLPRLEEIRIWGPLQEDADIQVYRRYGEEYGNLTRPDITFTYFQPKPRQAWVWAAVRGPCSVSCGAGLRWVNYSCLDQARKELVETVQCQGSQQPPAWPEACVLEPCPPYWAVGDFGPCSASCGGGLRERPVRCVEAQGSLLKTLPPARCRAGAQQPAVALETCNPQPCPARWEVSEPSSCTSAGGAGLALENETCVPGADGLEAPVTEGPGSVDEKLPAPEPCVGMSCPPGWGHLDATSAGEKAPSPWGSIRTGAQAAHVWTPAAGSCSVSCGRGLMELRFLCMDSALRVPVQEELCGLASKPGSRREVCQAVPCPARWQYKLAACSVSCGRGVVRRILYCARAHGEDDGEEILLDTQCQGLPRPEPQEACSLEPCPPRWKVMSLGPCSASCGLGTARRSVACVQLDQGQDVEVDEAACAALVRPEASVPCLIADCTYRWHVGTWMECSVSCGDGIQRRRDTCLGPQAQAPVPADFCQHLPKPVTVRGCWAGPCVGQGTPSLVPHEEIAAPGRTTATPAGASLEWSQARGLLFSPAPQPRRLLPGPQENSVQSSACGRQHLEPTGTIDMRGPGQADCAVAIGRPLGEVVTLRVLESSLNCSAGDMLLLWGRLTWRKMCRKLLDMTFSSKTNTLVVRQRCGRPGGGVLLRYGSQLAPETFYRECDMQLFGPWGEIVSPSLSPATSNAGGCRLFINVAPHARIAIHALATNMGAGTEGANASYILIRDTHSLRTTAFHGQQVLYWESESSQAEMEFSEGFLKAQASLRGQYWTLQSWVPEMQDPQSWKGKEGTSRGPFEQKLISEEDLNMHTGHHHHHH
B2: ADAMTS13 P1180K variant (Exemplified P1180K variant) (protein)
chain: AAGGILHLELLVAVGPDVFQAHQEDTERYVLTNLNIGAELLRDPSLGAQFRVHLVKMVILTEPEGAPNITANLTSSLLSVCGWSQTINPEDDTDPGHADLVLYITRFDLELPDGNRQVRGVTQLGGACSPTWSCLITEDTGFDLGVTIAHEIGHSFGLEHDGAPGSGCGPSGHVMASDGAAPRAGLAWSPCSRRQLLSLLSAGRARCVWDPPRPQPGSAGHPPDAQPGLYYSANEQCRVAFGPKAVACTFAREHLDMCQALSCHTDPLDQSSCSRLLVPLLDGTECGVEKWCSKGRCRSLVELTPIAAVHGRWSSWGPRSPCSRSCGGGVVTRRRQCNNPRPAFGGRACVGADLQAEMCNTQACEKTQLEFMSQQCARTDGQPLRSSPGGASFYHWGAAVPHSQGDALCRHMCRAIGESFIMKRGDSFLDGTRCMPSGPREDGTLSLCVSGSCRTFGCDGRMDSQQVWDRCQVCGGDNSTCSPRKGSFTAGRAREYVTFLTVTPNLTSVYIANHRPLFTHLAVRIGGRYVVAGKMSISPNTTYPSLLEDGRVEYRVALTEDRLPRLEEIRIWGPLQEDADIQVYRRYGEEYGNLTRPDITFTYFQPKPRQAWVWAAVRGPCSVSCGAGLRWVNYSCLDQARKELVETVQCQGSQQPPAWPEACVLEPCPPYWAVGDFGPCSASCGGGLRERPVRCVEAQGSLLKTLPPARCRAGAQQPAVALETCNPQPCPARWEVSEPSSCTSAGGAGLALENETCVPGADGLEAPVTEGPGSVDEKLPAPEPCVGMSCPPGWGHLDATSAGEKAPSPWGSIRTGAQAAHVWTPAAGSCSVSCGRGLMELRFLCMDSALRVPVQEELCGLASKPGSRREVCQAVPCPARWQYKLAACSVSCGRGVVRRILYCARAHGEDDGEEILLDTQCQGLPRPEPQEACSLEPCPPRWKVMSLGPCSASCGLGTARRSVACVQLDQGQDVEVDEAACAALVRPEASVPCLIADCTYRWHVGTWMECSVSCGDGIQRRRDTCLGPQAQAPVPADFCQHLPKPVTVRGCWAGPCVGQGTPSLVPHEEAAAPGRTTATPAGASLEWSQARGLLFSPAPQPRRLLKGPQENSVQSSACGRQHLEPTGTIDMRGPGQADCAVAIGRPLGEVVTLRVLESSLNCSAGDMLLLWGRLTWRKMCRKLLDMTFSSKTNTLVVRQRCGRPGGGVLLRYGSQLAPETFYRECDMQLFGPWGEIVSPSLSPATSNAGGCRLFINVAPHARIAIHALATNMGAGTEGANASYILIRDTHSLRTTAFHGQQVLYWESESSQAEMEFSEGFLKAQASLRGQYWTLQSWVPEMQDPQSWKGKEGTSRGPFEQKLISEEDLNMHTGHHHHHH
B3: ADAMTS13 A1146I variant (Exemplified A1146I variant) (protein)
chain: AAGGILHLELLVAVGPDVFQAHQEDTERYVLTNLNIGAELLRDPSLGAQFRVHLVKMVILTEPEGAPNITANLTSSLLSVCGWSQTINPEDDTDPGHADLVLYITRFDLELPDGNRQVRGVTQLGGACSPTWSCLITEDTGFDLGVTIAHEIGHSFGLEHDGAPGSGCGPSGHVMASDGAAPRAGLAWSPCSRRQLLSLLSAGRARCVWDPPRPQPGSAGHPPDAQPGLYYSANEQCRVAFGPKAVACTFAREHLDMCQALSCHTDPLDQSSCSRLLVPLLDGTECGVEKWCSKGRCRSLVELTPIAAVHGRWSSWGPRSPCSRSCGGGVVTRRRQCNNPRPAFGGRACVGADLQAEMCNTQACEKTQLEFMSQQCARTDGQPLRSSPGGASFYHWGAAVPHSQGDALCRHMCRAIGESFIMKRGDSFLDGTRCMPSGPREDGTLSLCVSGSCRTFGCDGRMDSQQVWDRCQVCGGDNSTCSPRKGSFTAGRAREYVTFLTVTPNLTSVYIANHRPLFTHLAVRIGGRYVVAGKMSISPNTTYPSLLEDGRVEYRVALTEDRLPRLEEIRIWGPLQEDADIQVYRRYGEEYGNLTRPDITFTYFQPKPRQAWVWAAVRGPCSVSCGAGLRWVNYSCLDQARKELVETVQCQGSQQPPAWPEACVLEPCPPYWAVGDFGPCSASCGGGLRERPVRCVEAQGSLLKTLPPARCRAGAQQPAVALETCNPQPCPARWEVSEPSSCTSAGGAGLALENETCVPGADGLEAPVTEGPGSVDEKLPAPEPCVGMSCPPGWGHLDATSAGEKAPSPWGSIRTGAQAAHVWTPAAGSCSVSCGRGLMELRFLCMDSALRVPVQEELCGLASKPGSRREVCQAVPCPARWQYKLAACSVSCGRGVVRRILYCARAHGEDDGEEILLDTQCQGLPRPEPQEACSLEPCPPRWKVMSLGPCSASCGLGTARRSVACVQLDQGQDVEVDEAACAALVRPEASVPCLIADCTYRWHVGTWMECSVSCGDGIQRRRDTCLGPQAQAPVPADFCQHLPKPVTVRGCWAGPCVGQGTPSLVPHEEAAIPGRTTATPAGASLEWSQARGLLFSPAPQPRRLLPGPQENSVQSSACGRQHLEPTGTIDMRGPGQADCAVAIGRPLGEVVTLRVLESSLNCSAGDMLLLWGRLTWRKMCRKLLDMTFSSKTNTLVVRQRCGRPGGGVLLRYGSQLAPETFYRECDMQLFGPWGEIVSPSLSPATSNAGGCRLFINVAPHARIAIHALATNMGAGTEGANASYILIRDTHSLRTTAFHGQQVLYWESESSQAEMEFSEGFLKAQASLRGQYWTLQSWVPEMQDPQSWKGKEGTSRGPFEQKLISEEDLNMHTGHHHHHH
B4: ADAMTS13 P1180I variant (Exemplified P1180I variant) (protein)
chain: AAGGILHLELLVAVGPDVFQAHQEDTERYVLTNLNIGAELLRDPSLGAQFRVHLVKMVILTEPEGAPNITANLTSSLLSVCGWSQTINPEDDTDPGHADLVLYITRFDLELPDGNRQVRGVTQLGGACSPTWSCLITEDTGFDLGVTIAHEIGHSFGLEHDGAPGSGCGPSGHVMASDGAAPRAGLAWSPCSRRQLLSLLSAGRARCVWDPPRPQPGSAGHPPDAQPGLYYSANEQCRVAFGPKAVACTFAREHLDMCQALSCHTDPLDQSSCSRLLVPLLDGTECGVEKWCSKGRCRSLVELTPIAAVHGRWSSWGPRSPCSRSCGGGVVTRRRQCNNPRPAFGGRACVGADLQAEMCNTQACEKTQLEFMSQQCARTDGQPLRSSPGGASFYHWGAAVPHSQGDALCRHMCRAIGESFIMKRGDSFLDGTRCMPSGPREDGTLSLCVSGSCRTFGCDGRMDSQQVWDRCQVCGGDNSTCSPRKGSFTAGRAREYVTFLTVTPNLTSVYIANHRPLFTHLAVRIGGRYVVAGKMSISPNTTYPSLLEDGRVEYRVALTEDRLPRLEEIRIWGPLQEDADIQVYRRYGEEYGNLTRPDITFTYFQPKPRQAWVWAAVRGPCSVSCGAGLRWVNYSCLDQARKELVETVQCQGSQQPPAWPEACVLEPCPPYWAVGDFGPCSASCGGGLRERPVRCVEAQGSLLKTLPPARCRAGAQQPAVALETCNPQPCPARWEVSEPSSCTSAGGAGLALENETCVPGADGLEAPVTEGPGSVDEKLPAPEPCVGMSCPPGWGHLDATSAGEKAPSPWGSIRTGAQAAHVWTPAAGSCSVSCGRGLMELRFLCMDSALRVPVQEELCGLASKPGSRREVCQAVPCPARWQYKLAACSVSCGRGVVRRILYCARAHGEDDGEEILLDTQCQGLPRPEPQEACSLEPCPPRWKVMSLGPCSASCGLGTARRSVACVQLDQGQDVEVDEAACAALVRPEASVPCLIADCTYRWHVGTWMECSVSCGDGIQRRRDTCLGPQAQAPVPADFCQHLPKPVTVRGCWAGPCVGQGTPSLVPHEEAAAPGRTTATPAGASLEWSQARGLLFSPAPQPRRLLIGPQENSVQSSACGRQHLEPTGTIDMRGPGQADCAVAIGRPLGEVVTLRVLESSLNCSAGDMLLLWGRLTWRKMCRKLLDMTFSSKTNTLVVRQRCGRPGGGVLLRYGSQLAPETFYRECDMQLFGPWGEIVSPSLSPATSNAGGCRLFINVAPHARIAIHALATNMGAGTEGANASYILIRDTHSLRTTAFHGQQVLYWESESSQAEMEFSEGFLKAQASLRGQYWTLQSWVPEMQDPQSWKGKEGTSRGPFEQKLISEEDLNMHTGHHHHHH

Molecular target: T1, FRETS-VWF73 substrate (VWF fragment …)

Protein	proteolytic activity, FRETS-VWF73 assay	proteolytic activity, FRETS-VWF73 assay, fold increase
B1	induces a similar constitutive activity to that seen with the A1144V, A1146V variants	
B2		Induces greater than 10-fold increase in activity
B3	induces a similar constitutive activity to that seen with the A1144V, A1146V variants	
B4		Induces greater than 10-fold increase in activity
